Measurements taken from publication PMC6947844.
Positions count from the first letter of the chain named.

B1: monoclonal antibody 40H3 (antibody, V domains shown)
VH: QVQLKQSGPGLVQPSQSLSITCTVSGFSLTNYGIHWLRQSPGKGLEWLGMMWRGGGTDYNAAFISRLTITKDTSKSQVFFRMNNLQTNDTAIYYCARKGVGMGLGYWGQGTSVTVSS
VL: DIQMTQSPASQSASLGESVTITCLASQTIGTWVAWYQQKPGRSPQLLIYGATNLADGVPSRFSGSGSGTKFSFKISSLQAEDFVSYYCQQLYSNPYTFGGGTKLEIK
B2: monoclonal antibody 11G3 (antibody, V domains shown)
VH: QVQLKQSGPSLVQPSQSLSITCTVSGFSLTNYGVHWVRQSPGKGLEWLGVMWRGGRTDYNAAFMSRLSITKDNSRSQVFFKMNSLQTDDAAIYYCAKNGPFGNFAGYWGQGTLVTVST
VL: DIVMSQSPSSLPVSVGEKVSLTCKSSRSLLDNQKHYLAWYQQKPGQSPKLLIYWASTRESGVPDRFTGSGSGTEFTLTISSVKAEDLAVYYCQQFYNYPYTFGGGTKLEIK
B3: monoclonal antibody 1D9 (antibody, V domains shown)
VH: QVQLKQSGRSLVQPSQSLSITCTVSGFSLTDYGVHWIRQSPGKGLEWLGVIWRSGRTDYNAVFMSRLSITKDNSKSQVFFKMNGLQTDDTAIYYCAKNGPFGNFAGYWGQGTPVAVSA
VL: DIVMSQSPSSLAVSVGEKVTMRCRSSQSLLDSYHQKNYLAWYLQKPGQSPKLLIYWASTRESGVPDRFTGSGSGTDFTLTISSVKAEDLAVYYCQEYYRYPYTFGGGTKLEIK
B4: monoclonal antibody 4A4 (antibody, V domains shown)
VH: B3 VH with Q86L, T87I, D88E
VL: B3 VL with V91A
B5: monoclonal antibody 11E11 (antibody, V domains shown)
VH: B2 VH with V37I, M51K, K71R, A90T, T118A
VL: B2 VL with P12A, R27Q
B6: monoclonal antibody 3D10 (antibody, V domains shown)
VH: QVQLKQSGPGLVQPSQSLSIICTVSGFSLTRNGVHWVRQSPGKGLEWVGVIWRSGRTDYDAAFMSRLSITKDNSKSQVFFKMNSLQADDTAIYYCVKNGDDGNYGTYWGQGTLVTVSA
VL: DIVMSQSPSSLGVSVGEKVTMSCKSSQSLLDSRNQKNYLAWYQQKPGQSPKLLIYWASTRESGVPDRFTGSGSGTEFTLTISSVKAEDLAIYYCQQYYNYPYTFGGGTKLEIT
B7: monoclonal antibody 9G11 (antibody, V domains shown)
VH: B6 VH with I21T, S54G
VL: B6 VL

molecular target: human wtEGFR on F98_(EGFR) cells (human) (UniProt P00533); experiment: […], FACS buffer

Binder | median fluorescence intensity
B1 | 187 units

molecular target: wtEGFR at physiological levels on WI-38 cells (human (endogenous in WI-38)) (UniProt P00533); experiment: […], FACS buffer

Binder | median fluorescence intensity
B2 | < 100 units
B3 | < 100 units
B4 | < 100 units
B5 | < 100 units
B6 | < 100 units
B7 | < 100 units
B1 | < 100 units
